B1: 抗PAD4抗体2-1-47 (antibody, human IgG1, lambda, V domains shown)
VH: EVQLLESGGGLVQPGGSLRLSCAASGFTFSTYAMGWVRQAPGKGLEFVAAIRNDGSWTGYGTPYKTRFTISRDNSKNTLYLQMSSLRAEDTAVYYCAKYTGSSGGSIGAWGQGTLVTVSS
VL: SYELTQPPSVSVSPGQTARITCSGGNRNYYYGWYQQKPGQAPVTVIYANDKRPSGIPERFSGSNSGSTTTLTISGVQAEDEADYYCGTATTGKYVFGGGTKLTVLG
B2: 抗PAD4抗体3-1-39 (antibody, human IgG1, lambda, V domains shown)
VH: EVQLLESGGGLVQPGGSLRLSCAASGFTFSTYAMGWVRQAPGKGLEFVAAIRNDGSWTGTSVNAKTRFTISRDNSKNTLYLQMSSLRAEDTAVYYCAKYTGSSGGSIGAWGQGTLVTVSS
VL: SYELTQPPSVSVSPGQTARITCSGGNRNYYYGWYQQKPGQAPVTVIYANDKRPSGIPERFSGSNSGSTTTLTISGVQAEDEADYYCGTATTGKYVFGGGTKLTVLG
B3: 抗PAD4抗体3-2-37 (antibody, human IgG1, lambda, V domains shown)
VH: EVQLLESGGGLVQPGGSLRLSCAASGFTFSTYAMGWVRQAPGKGLEFVAAIRNDGSWTGIGYNQKSRFTISRDNSKNTLYLQMSSLRAEDTAVYYCGKYTGSSGGSIGAWGQGTLVTVSS
VL: SYELTQPPSVSVSPGQTARITCSGGNRNYYYGWYQQKPGQAPVTVIYANDKRPSGIPERFSGSNSGSTTTLTISGVQAEDEADYYCGTALTGKYVFGGGTKLTVLG
B4: 抗PAD4抗体4-2-25 (antibody, human IgG1, lambda, V domains shown)
VH: EVQLLESGGGLVQPGGSLRLSCAASGFTFSTYAMGWVRQAPGKGLEFVAAIRNDGSWTGYPPPLKGRFTISRDNSKNTLYLQMSSLRAEDTAVYYCAKYTGSSGGSIGAWGQGTLVTVSS
VL: SYELTQPPSVSVSPGQTARITCSGGNRNYYYGWYQQKPGQAPVTVIYANDKRPSGIPERFSGSNSGSTTTLTISGVQAEDEADYYCGTAYTGKYVFGGGTKLTVLG

Biological target: ヒ卜PAD4(Cayman Chemical company、Cat. 10500) (human) (UniProt Q9UM07)
Test: SPR Biacore T200, stored antibody captured on Protein A chip, human PAD4 at 50 nM as analyte

UniProt Q9UM07, sequence (Q9UM07 whole entry): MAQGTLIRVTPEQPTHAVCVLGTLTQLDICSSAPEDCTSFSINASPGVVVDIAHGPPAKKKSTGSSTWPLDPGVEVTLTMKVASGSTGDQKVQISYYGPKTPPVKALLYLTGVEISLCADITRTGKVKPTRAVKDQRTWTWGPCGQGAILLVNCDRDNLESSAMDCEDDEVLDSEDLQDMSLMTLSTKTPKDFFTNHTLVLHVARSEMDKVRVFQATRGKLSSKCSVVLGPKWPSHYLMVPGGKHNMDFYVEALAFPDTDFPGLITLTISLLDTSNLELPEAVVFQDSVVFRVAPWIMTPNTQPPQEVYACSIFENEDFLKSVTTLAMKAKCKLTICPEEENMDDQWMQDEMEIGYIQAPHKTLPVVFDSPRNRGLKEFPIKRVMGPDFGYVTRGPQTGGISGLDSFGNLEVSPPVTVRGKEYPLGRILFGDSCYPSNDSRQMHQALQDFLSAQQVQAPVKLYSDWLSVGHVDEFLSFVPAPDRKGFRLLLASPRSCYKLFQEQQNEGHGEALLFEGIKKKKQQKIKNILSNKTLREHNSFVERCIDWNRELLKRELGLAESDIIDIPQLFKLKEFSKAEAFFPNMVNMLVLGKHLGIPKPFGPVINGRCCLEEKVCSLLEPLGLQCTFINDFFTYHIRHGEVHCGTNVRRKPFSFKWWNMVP

Row | Binder | 抗原結合活性 (relative antigen binding after 40℃ for 4 weeks against 4℃ for 4 weeks) [%]
1 | B1 | > 90
2 | B2 | > 90
3 | B3 | > 90
4 | B4 | > 90
